Consider two molecules from US20230192845A1 (BLINK BIOMEDICAL, published 2023).

Test [1] addresses T1, mouse CD96 expressed on CHO cells (mouse, UniProt Q3U0X8 22-602).
T1 construct: whole, on cells; also called mCD96
T1 sequence (looked up): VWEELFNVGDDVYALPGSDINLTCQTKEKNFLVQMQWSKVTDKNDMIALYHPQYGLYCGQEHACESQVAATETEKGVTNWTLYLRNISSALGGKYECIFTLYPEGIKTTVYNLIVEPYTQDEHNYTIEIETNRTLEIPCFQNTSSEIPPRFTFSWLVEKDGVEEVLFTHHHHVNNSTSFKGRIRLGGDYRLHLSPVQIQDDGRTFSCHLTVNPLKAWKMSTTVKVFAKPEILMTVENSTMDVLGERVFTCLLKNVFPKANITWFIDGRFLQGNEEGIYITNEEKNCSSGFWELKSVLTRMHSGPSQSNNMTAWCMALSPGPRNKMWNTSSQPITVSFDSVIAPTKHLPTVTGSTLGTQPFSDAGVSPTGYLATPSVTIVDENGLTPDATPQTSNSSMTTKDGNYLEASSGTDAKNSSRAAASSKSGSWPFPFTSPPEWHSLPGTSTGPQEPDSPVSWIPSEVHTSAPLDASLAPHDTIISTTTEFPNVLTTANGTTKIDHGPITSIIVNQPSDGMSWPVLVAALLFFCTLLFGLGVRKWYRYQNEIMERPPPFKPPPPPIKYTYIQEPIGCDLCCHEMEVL
Description: FCM on CHO cells expressing mouse CD96. An outline of the steps: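 Flow cytometry on non-fixed CHO transfectants; mouse CD96 surface expression verified with clone 6A6. Mouse anti-CD96 antibodies or isotype controls applied at 10 or 1 μg/mL, 30 min at +4 °C.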

The target in test [2] is T2, human CD96 short isoform v2 expressed on CHO cells (human, UniProt P40200 22-585).
T2 construct: also called hCD96v2; CD96v2; not shown: C-terminal HA-tag
T2 sequence: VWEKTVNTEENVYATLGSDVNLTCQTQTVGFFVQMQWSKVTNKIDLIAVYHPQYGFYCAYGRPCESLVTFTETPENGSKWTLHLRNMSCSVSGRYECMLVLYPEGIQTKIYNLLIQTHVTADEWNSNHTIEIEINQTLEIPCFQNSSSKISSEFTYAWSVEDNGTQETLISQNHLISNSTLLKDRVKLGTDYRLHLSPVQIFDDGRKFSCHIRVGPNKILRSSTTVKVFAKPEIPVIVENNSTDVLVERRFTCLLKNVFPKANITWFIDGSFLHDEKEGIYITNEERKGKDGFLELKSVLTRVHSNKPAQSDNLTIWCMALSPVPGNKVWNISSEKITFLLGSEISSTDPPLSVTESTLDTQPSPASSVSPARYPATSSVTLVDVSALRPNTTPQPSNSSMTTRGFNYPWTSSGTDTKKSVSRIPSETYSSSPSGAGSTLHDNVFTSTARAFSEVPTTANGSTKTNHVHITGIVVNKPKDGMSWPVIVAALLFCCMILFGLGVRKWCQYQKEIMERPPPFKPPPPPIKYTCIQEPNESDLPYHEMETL
Description: flow cytometry, indirect staining of transiently transfected CHO-S cells; median % of stained cells, 3-4 experiments. The source says: Expression plasmids containing either the complete sequence of hCD96v2 or different extracellular domains (D1 to D3) of hCD96v2 or combinations thereof (D1D2, D1D3 or D2D3) were transiently transfected in CHO-S cells. Each transient transfect was indirectly stained with the different anti-CD96 candidates and analyzed by flow cytometry. Represented is the median % of stained CHO-S transfect obtained from 3 to 4 independent experiments for each anti-CD96 tested.
Expression vectors coding for truncated extracellular domains of hCD96v2 (short isoform v2) were constructed to map, within the 3 described immunoglobulin domains of hCD96v2, the epitopes recognized by the anti-hCD96 candidates. All expression vectors constructed contained the signal peptide, the D4 domain, the transmembrane, the intracellular chain of […] plus a HA-Tag to monitor transfection efficiency of the various constructs. The expression vectors contained only D1, D2, D3 or combinations of those 3 domains (D1D2, D1D3, D2D3). The anti-hCD96 antibodies were tested by FCM for their capacity to recognize the truncated CD96 proteins transiently expressed on CHO-S cells.

Test [3] concerns the target T3, human CD96 long isoform v1 transiently expressed on CHO cells (human, UniProt P40200 22-585).
T3 construct: also called hCD96v1; CD96v1
T3 sequence: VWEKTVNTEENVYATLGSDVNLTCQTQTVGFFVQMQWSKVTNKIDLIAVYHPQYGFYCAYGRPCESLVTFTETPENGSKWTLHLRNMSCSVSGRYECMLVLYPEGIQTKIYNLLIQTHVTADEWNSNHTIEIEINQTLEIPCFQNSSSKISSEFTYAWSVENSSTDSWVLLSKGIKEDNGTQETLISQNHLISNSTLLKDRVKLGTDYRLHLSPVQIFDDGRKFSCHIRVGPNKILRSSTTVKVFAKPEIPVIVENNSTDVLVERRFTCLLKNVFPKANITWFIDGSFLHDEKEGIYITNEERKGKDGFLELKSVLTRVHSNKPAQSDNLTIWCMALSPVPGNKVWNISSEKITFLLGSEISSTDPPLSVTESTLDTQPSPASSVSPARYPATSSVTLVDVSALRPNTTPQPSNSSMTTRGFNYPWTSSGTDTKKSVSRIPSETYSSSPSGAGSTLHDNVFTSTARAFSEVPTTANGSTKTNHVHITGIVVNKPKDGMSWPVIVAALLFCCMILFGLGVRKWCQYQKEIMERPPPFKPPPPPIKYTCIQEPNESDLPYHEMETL
The experiment in a line: FCM on hCD96v1-CHO cells, 10 µg/ml.

Test [4] has as its target T4, rhesus CD96 transiently expressed on CHO cells (rhesus, UniProt P40200 22-585 (human entry)).
T4 construct: also called rhesus CD96, short isoform
T4 chain: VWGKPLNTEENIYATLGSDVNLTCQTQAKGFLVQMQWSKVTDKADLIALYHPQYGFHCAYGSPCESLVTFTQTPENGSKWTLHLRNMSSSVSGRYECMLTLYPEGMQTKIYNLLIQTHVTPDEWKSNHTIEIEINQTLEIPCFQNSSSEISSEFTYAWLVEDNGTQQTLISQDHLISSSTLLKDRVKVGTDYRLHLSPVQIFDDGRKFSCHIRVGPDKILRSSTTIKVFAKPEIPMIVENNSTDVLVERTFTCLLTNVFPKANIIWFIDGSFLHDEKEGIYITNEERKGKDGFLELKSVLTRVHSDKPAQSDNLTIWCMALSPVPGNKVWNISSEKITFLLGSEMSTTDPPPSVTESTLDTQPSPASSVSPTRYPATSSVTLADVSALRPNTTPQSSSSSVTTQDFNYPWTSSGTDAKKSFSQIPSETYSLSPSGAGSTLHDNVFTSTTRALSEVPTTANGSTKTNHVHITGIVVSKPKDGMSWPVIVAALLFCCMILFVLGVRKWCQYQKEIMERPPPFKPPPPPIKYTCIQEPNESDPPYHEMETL
The experiment in a line: flow cytometry on CHO cells transiently expressing rhesus CD96; antibody at 1 (thin line) and 10 µg/ml (thick dashed line), filled grey = isotype control. In short, it runs like this:
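Non-fixed CHO cells transiently transfected with rhesus CD96 were incubated with mouse anti-CD96 antibodies or isotype controls at 1 or 10 µg/mL for 30 min at 4 °C. Binding was read as fluorescence intensity by flow cytometry.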

Test [5] concerns the target T5, hCD226-His tagged protein transiently expressed on CHO cells (human, UniProt Q15762 19-336).
T5 construct: whole, on cells; also called DNAM-1
T5 sequence (looked up): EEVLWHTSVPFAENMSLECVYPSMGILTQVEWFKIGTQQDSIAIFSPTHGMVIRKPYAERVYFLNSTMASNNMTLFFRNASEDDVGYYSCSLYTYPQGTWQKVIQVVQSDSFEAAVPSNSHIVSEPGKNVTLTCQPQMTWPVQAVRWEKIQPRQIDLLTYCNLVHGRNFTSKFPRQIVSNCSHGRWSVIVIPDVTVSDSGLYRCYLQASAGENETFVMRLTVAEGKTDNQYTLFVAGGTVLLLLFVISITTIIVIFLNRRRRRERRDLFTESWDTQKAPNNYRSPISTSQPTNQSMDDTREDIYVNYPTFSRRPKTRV
Description: FRET by flow cytometry on transfected CHO cells.

B1: BL006-2-19G13-19K15 (antibody, V domains shown)
VH: QVQLQQPGSELVRPGASVKLSCKASGYKFTSYWMHWVKQRPGQGLEWIGSIYPGSGSTNYDEKFKRKATLTVDTFSSTASMQLSSLTSEDSAVYYCTREMAYWGQGTLVTVSA
VL: DIVITQDELSNPVTSGESVSISCRSSKSLLYKDGKTYLNWFLQRPGQSPQLLVYWMSTRASGVSDRFSGSGSGTDFTLEISRVKAEDVGVYYCQQVVEYPFTFGTGTKLGIK
notes: Recombinant mIgG2a/kappa (also made as mIgG2a-D265A); also called candidate NO 9
With B1, the binding result in test [1] is “no binding (tested: 1 and 10 µg/mL)”; in test [2], “binds”; in test [3] it was “binds”; in test [4] it was “binds”.

B2: hTIGIT-Myc tagged protein transiently expressed on CHO cells (receptor, human, UniProt Q495A1 22-244, looked up)
chain: MMTGTIETTGNISAEKGGSIILQCHLSSTTAQVTQVNWEQQDQLLAICNADLGWHISPSFKDRVAPGPGLGLTLQSLTVNDTGEYFCIYHTYPDGTYTGRIFLEVLESSVAEHGARFQIPLLGAMAATLVVICTAVIVVVALTRKKKALRIHSVEGDLRRKSAGQEEWSPSAPSPPGSCVQAEAAPAGLCGEQRGEDCAELHDYFNVLSYRSLGNCSFFTETG
notes: whole, on cells
Consider B2, for which the binding result in test [5] is “binds”.
